Experimental data reported in publication PMC10484741, “Human TRMT2A methylates tRNA and contributes to translation fidelity”.
Positions count from the first letter of the chain named. In names and notes the source's numbering stands.

Key:
hTRMT2A FL (WT) [1] = molecular target: T1, hTRMT2A FL (WT) (Homo sapiens, UniProt Q8IZ69 1-625); assay: SPR; steady-state fit, apparent KD; EMSA: 50 mM HEPES-NaOH pH 7.5, 150 mM NaCl, 4% glycerol, 2.5 ng/ul poly(U), 5 nM RNA, 0-1.25 uM protein (final, as stated), 20 min room temperature; SPR: 150 mM NaCl, 50 mM HEPES-NaOH 7.5, 0.05% Tween, 25 C; conditions: protein: recombinant; tags: N-terminal His-SUMO tag cleaved; label: 3' biotin; tRNA cloverleaf
T1 sequence: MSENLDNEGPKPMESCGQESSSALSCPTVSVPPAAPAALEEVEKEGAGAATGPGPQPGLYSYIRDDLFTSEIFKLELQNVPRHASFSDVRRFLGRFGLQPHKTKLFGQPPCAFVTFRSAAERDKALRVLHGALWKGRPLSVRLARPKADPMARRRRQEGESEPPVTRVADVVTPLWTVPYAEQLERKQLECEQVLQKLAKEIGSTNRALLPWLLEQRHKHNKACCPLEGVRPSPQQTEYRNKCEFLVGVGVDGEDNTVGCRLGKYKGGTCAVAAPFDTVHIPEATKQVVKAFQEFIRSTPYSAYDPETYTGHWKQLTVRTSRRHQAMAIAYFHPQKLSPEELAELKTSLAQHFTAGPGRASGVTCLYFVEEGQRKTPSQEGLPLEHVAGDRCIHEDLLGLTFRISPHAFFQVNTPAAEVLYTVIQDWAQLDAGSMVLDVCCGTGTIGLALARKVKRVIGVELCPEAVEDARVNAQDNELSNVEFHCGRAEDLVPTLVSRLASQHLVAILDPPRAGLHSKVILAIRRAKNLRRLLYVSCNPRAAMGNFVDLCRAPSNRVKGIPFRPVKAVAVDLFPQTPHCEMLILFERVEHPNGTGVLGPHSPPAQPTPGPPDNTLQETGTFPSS

[2] = molecular target: T2, hTRMT2A CDM (catalytic death mutant) (Homo sapiens, UniProt Q8IZ69 1-625, E76A;K104E;F113A;K242A;F409A;Q411A;D510A;C538A); assay: as above; conditions: protein: recombinant; tags: N-terminal His-SUMO tag cleaved; label: 3' biotin; tRNA cloverleaf
T2 sequence: T1 sequence with E76A, K104E, F113A, K242A, F409A, Q411A, D510A, C538A

[3] = molecular target: T2, hTRMT2A CDM (catalytic death mutant); assay: EMSA; similar to WT, nM KD range, more supershifts; poly(U) competitor; EMSA: 50 mM HEPES-NaOH pH 7.5, 150 mM NaCl, 4% glycerol, 2.5 ng/ul poly(U), 5 nM RNA, 0-1.25 uM protein (final, as stated), 20 min room temperature; SPR: 150 mM NaCl, 50 mM HEPES-NaOH 7.5, 0.05% Tween, 25 C; conditions: protein: recombinant; tags: N-terminal His-SUMO tag cleaved; label: 5'-32P; tRNA cloverleaf
hTRMT2A FL (WT) [4] = molecular target: T1, hTRMT2A FL (WT); assay: EMSA; low nM KD range; shift already at 60 nM; poly(U) competitor; EMSA: 50 mM HEPES-NaOH pH 7.5, 150 mM NaCl, 4% glycerol, 2.5 ng/ul poly(U), 5 nM RNA, 0-1.25 uM protein (final, as stated), 20 min room temperature; SPR: 150 mM NaCl, 50 mM HEPES-NaOH 7.5, 0.05% Tween, 25 C; conditions: protein: recombinant; tags: N-terminal His-SUMO tag cleaved; label: 5'-32P; tRNA cloverleaf
hTRMT2A FL (WT) [5] = molecular target: T1, hTRMT2A FL (WT); assay: size exclusion chromatography; 1:1 mix; elution shift 17.41 to 15.46 ml; EMSA: 50 mM HEPES-NaOH pH 7.5, 150 mM NaCl, 4% glycerol, 2.5 ng/ul poly(U), 5 nM RNA, 0-1.25 uM protein (final, as stated), 20 min room temperature; SPR: 150 mM NaCl, 50 mM HEPES-NaOH 7.5, 0.05% Tween, 25 C; conditions: protein: recombinant; tags: N-terminal His-SUMO tag cleaved; tRNA cloverleaf
hTRMT2A FL (WT) [6] = molecular target: T1, hTRMT2A FL (WT); assay: EMSA; low nM KD range; poly(U) competitor; EMSA: 50 mM HEPES-NaOH pH 7.5, 150 mM NaCl, 4% glycerol, 2.5 ng/ul poly(U), 5 nM RNA, 0-1.25 uM protein (final, as stated), 20 min room temperature; SPR: 150 mM NaCl, 50 mM HEPES-NaOH 7.5, 0.05% Tween, 25 C; conditions: protein: recombinant; tags: N-terminal His-SUMO tag cleaved; label: 5'-32P; tRNA cloverleaf

B1: tRNAGln-TTG, 3' biotin (structured_RNA)
RNA: GGUCCCAUGGUGUAAUGGUUAGCACUCUGGACUUUGAAUCCAGCGAUCCGAGUUCAAAUCUCGGUGGGACCUCCA
modifications: 3' biotin
- Kd (hTRMT2A FL (WT) [1]): 306 ± 60 nM
- Kd [2]: 428 ± 71 nM

B2: tRNAGln-TTG (structured_RNA)
RNA: B1 RNA
- binding result [3]: binds
- binding result (hTRMT2A FL (WT) [4]): binds

B3: tRNAGln-TTG, unlabeled (structured_RNA)
RNA: B1 RNA
- binding result (hTRMT2A FL (WT) [5]): binds

B4: tRNAGln U54G (structured_RNA)
RNA: B1 RNA with U53G
- binding result (hTRMT2A FL (WT) [6]): binds

B5: tRNAAla-AGC (A54) (structured_RNA)
RNA: GGGGAAUUAGCUCAGGCGGUAGAGCGCUCGCUUAGCAUGCGAGAGGUAGCGGGAUCGACGCCCGCAUUCUCCA
- binding result (hTRMT2A FL (WT) [6]): binds
